The record followed here is patent US20200078441A1 (TAIPEI VETERANS GENERAL HOSPITAL, published 2020).

For this assay, the target named is T1, recombinant His-tagged AGO2 protein (human Argonaute 2, baculovirus-expressed) (human, UniProt Q9UKV8 1-859).
T1 construct: Expressed in High Five insect cells and purified on nickel resin; also called His-AGO2; HisAGO2
Briefly: PepSpot peptide array incubated with recombinant His-tagged AGO2 (2 µg), detected with anti-His-HRP.

T1 sequence (Q9UKV8 other isoform, or with tags, fused parts or gaps limits assumed): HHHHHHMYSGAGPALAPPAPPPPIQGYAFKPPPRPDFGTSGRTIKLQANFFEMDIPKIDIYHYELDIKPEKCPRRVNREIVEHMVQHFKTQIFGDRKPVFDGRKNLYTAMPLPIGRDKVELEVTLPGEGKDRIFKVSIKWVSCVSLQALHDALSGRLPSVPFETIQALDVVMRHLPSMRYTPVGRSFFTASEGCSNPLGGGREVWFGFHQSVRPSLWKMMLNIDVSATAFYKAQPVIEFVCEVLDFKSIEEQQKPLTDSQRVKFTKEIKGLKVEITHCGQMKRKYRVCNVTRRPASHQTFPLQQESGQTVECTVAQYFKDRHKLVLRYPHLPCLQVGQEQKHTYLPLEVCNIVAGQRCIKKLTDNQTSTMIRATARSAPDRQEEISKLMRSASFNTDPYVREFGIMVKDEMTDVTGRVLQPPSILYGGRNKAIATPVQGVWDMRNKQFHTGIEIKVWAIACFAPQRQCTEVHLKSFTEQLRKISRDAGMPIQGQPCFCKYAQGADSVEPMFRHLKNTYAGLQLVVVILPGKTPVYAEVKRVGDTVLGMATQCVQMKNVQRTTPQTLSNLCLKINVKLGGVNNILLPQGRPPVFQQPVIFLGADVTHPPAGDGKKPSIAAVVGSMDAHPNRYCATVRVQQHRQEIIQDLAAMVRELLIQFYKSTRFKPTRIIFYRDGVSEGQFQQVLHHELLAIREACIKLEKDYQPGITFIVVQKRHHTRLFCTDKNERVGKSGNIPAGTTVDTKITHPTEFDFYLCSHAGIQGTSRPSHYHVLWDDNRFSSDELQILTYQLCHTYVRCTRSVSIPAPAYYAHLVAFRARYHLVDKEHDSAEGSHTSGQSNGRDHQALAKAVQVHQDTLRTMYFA
Experimental: The association rate constant (Kₐ), dissociation rate constant (Kd), and equilibrium dissociation constant (KD) were calculated and presented in the chart (bottom).

B1: PepSpot array peptide 13 (peptide)
peptide: SAPVLPELTAIPLTA
notes: 15-mer of the MSI1 C-terminus spotted on the PepSpot membrane; also called Index 13
Regarding B1, the binding result is on record as “no binding”.

B2: PepSpot array peptide 23 (peptide)
peptide: QDSGVSSYISAASPA
notes: 15-mer of the MSI1 C-terminus spotted on the PepSpot membrane; also called Index 23
For B2, the binding result is “no binding”.

B3: PepSpot array peptide 16 (peptide)
peptide: AAAAAAVVRGTGSHP
notes: 15-mer of the MSI1 C-terminus spotted on the PepSpot membrane; also called Index 16
As for B3, the binding result is reported as “no binding”.

B4: PepSpot array peptide 22 (peptide)
peptide: ELYGAANQDSGVSSY
notes: 15-mer of the MSI1 C-terminus spotted on the PepSpot membrane; also called Index 22
For the molecule B4, the binding result is “no binding”.

B5: PepSpot array peptide 21 (peptide)
peptide: TSPGPMAELYGAANQ
notes: 15-mer of the MSI1 C-terminus spotted on the PepSpot membrane; also called Index 21
For the molecule B5, the binding result was “no binding”.

B6: PepSpot array peptide 12 (peptide)
peptide: VERTPLPSAPVLPEL
notes: 15-mer of the MSI1 C-terminus spotted on the PepSpot membrane; also called Index 12
On to B6, for which the binding result was “no binding”.

B7: PepSpot array peptide 15 (peptide)
peptide: AYGPMAAAAAAAAVV
notes: 15-mer of the MSI1 C-terminus spotted on the PepSpot membrane; also called Index 15
For B7, the binding result is given as “no binding”.

B8: PepSpot array peptide 14 (peptide)
peptide: LTAIPLTAYGPMAAA
notes: 15-mer of the MSI1 C-terminus spotted on the PepSpot membrane; also called Index 14
With B8, the binding result is given as “no binding”.
